In publication PMC4963197, “Phosphorylation acts positively and negatively to regulate MRTF-A subcellular localisation and activity” (eLife, 2016):
Values belong to the molecule of their own block, whether it stands above or below them.

Key:
G-actin = biological target: T1, G-actin (Oryctolagus cuniculus, UniProt P68135); test: Size exclusion chromatography of G-actin / MRTF-A(67–199) complexes; assay type: binding; details: SEC, recombinant MRTF-A(67–199)
T1 construct: Actin was prepared as described ([Mouilleron et al., 2008]); from tissue; host or cells: rabbit skeletal muscle (own knowledge of the cited method)
Protocol: GST-fusions were expressed in E. coli Rosetta (DE3) pLysS (Novagen). Lysis was in 50 mM Tris-HCl pH 7.5, 300 mM NaCl, 1% TX-100, 5 mM DTT, 10 mM EDTA pH 8, 1 mM PMSF, 15 μg/mL Benzamidine, followed by passage through a French press. Following adsorption onto glutathione-Sepharose, proteins were recovered by cleavage with GST-3C protease at 4°C overnight in 50 mM Tris-HCl (pH 7.5), 100 mM NaCl, 1 mM DTT. Crm1 and Ran(1–180) Q69L were purified as described ([Güttler et al., 2010]).
Preparation of LatB-actin and fluorescence polarisation anisotropy assay were described ([Guettler et al., 2008]). Size exclusion chromatography was on Superdex 200 column equilibrated in 20 mM Tris (pH 8), 100 mM NaCl, 3 mM MgCl2, 0.2 mM EGTA, 0.3 mM TCEP [(tris(2-carboxyethyl)phosphine)], 5% (v/v) glycerol, calibrated with globular proteins of known molecular weight.

Crm1 = test: GST pulldown of recombinant Crm1; assay type: binding; details: Ran 1–180 Q69L, 3 hr at 4°C
Protocol: For GST pulldown assays, glutathione-sepharose was saturated with GST-fusion proteins, washed in binding buffer (50 mM Tris-HCl pH 7.5, 100 mM NaCl, 10 mM MgCl2, 0.05% NP-40), and incubated with purified recombinant Crm1, Ran(1–180) Q69L or ERK2 for 3 hr at 4°C. After four washes with binding buffer, proteins were eluted in SDS loading buffer for analysis. For kinase assays, glutathione-Sepharose was saturated with GST-MRTF 2–199, washed in binding buffer, and incubated with purified recombinant ERK2 and actin in binding buffer with 250 μM ATP and 10 mg/ml BSA, at 30°C. The reaction was stopped by addition of SDS loading buffer.

apparent molecular mass of G-actin complex (G-actin; Superdex 200, 20 mM Tris (pH 8), 100 mM NaCl, 3 mM MgCl2, 0.2 mM EGTA, 0.3 mM TCEP, 5% glycerol): 139.8 kDa
apparent stoichiometry of G-actin binding (G-actin; Superdex 200, pH 8, calibrated with globular proteins): 3.0 actins
B1: MRTF-A(67–199) WT: recombinant MRTF-A(67–199), intact RPEL domain (protein, UniProt Q8K4J6 67-199, looked up, fragment)
chain: SRPERAELVRMHILEETSAEPSLQAKQLKLKRARLADDLNEKIAQRPGPMELVEKNILPVESSLKEAIIVGQVNYPKVADSSSFDEDSSDALSPEQPASHESQGSVPSPLESRVSDPLPSATSISPTQVLSQL

B2: MRTF residues 2–67: MRTF-A N-terminal residues 2–67 containing NES1 (protein, UniProt Q8K4J6 2-67, looked up, fragment)
chain: TLLEPEMLMMAVQSVLQLKLQQRRTREELVSQGIMPPLKSPAAFHEQRRSLERARTEDYLKRKIRS
recovery of recombinant Crm1 (Crm1): could recover recombinant Crm1 from solution in a pulldown assay
